Data set [1] deals with the molecule itself. Description: dynamic light scattering; 20°C; K-buffer (non-salt buffer plus 250 mM KCl); 0.25 mg/ml enzyme.
Data set [2] deals with the molecule itself. Description: dynamic light scattering; 20°C; non-salt buffer (1 mM PIPES-TEA hydroxide pH 6.9, 1 mM EDTA, 0.5 mM DTT); 0.25 mg/ml enzyme; for SoBADH: dimers to tetramer.
Data set [3] deals with the molecule itself. Description: SEC; Superdex 200 HR 10/30, room temperature; K-buffer (1 mM PIPES-TEA hydroxide pH 6.9, 1 mM EDTA, 0.5 mM DTT, 250 mM KCl); 0.25 mg/ml protein.

B1: betaine aldehyde dehydrogenase from spinach (Spinacia oleracea) (enzyme)
chain: MAFPIPARQLFIDGEWREPIKKNRIPVINPSTEEIIGDIPAATAEDVEVAVVAARRAFRRNNWSATSGAHRATYLRAIAAKITEKKDHFVKLETIDSGKPFDEAVLDIDDVASCFEYFAGQAEALDGKQKAPVTLPMERFKSHVLRQPLGVVGLISPWNYPLLMATWKIAPALAAGCTAVLKPSELASVTCLEFGEVCNEVGLPPGVLNILTGLGPDAGAPLVSHPDVDKIAFTGSSATGSKVMASAAQLVKPVTLELGGKSPIVVFEDVDIDKVVEWTIFGCFWTNGQICSATSRLLVHESIAAEFVDKLVKWTKNIKISDPFEEGCRLGPVISKGQYDKIMKFISTAKSEGATILYGGSRPEHLKKGYYIEPTIVTDISTSMQIWKEEVFGPVLCVKTFSSEDEAIALANDTEYGLAAAVFSNDLERCERITKALEVGAVWVNCSQPCFVQAPWGGIKRSGFGRELGEWGIQNYLNIKQVTQDISDEPWGWYKS
notes: betaine aldehyde dehydrogenase (BADH, ALDH10) of Spinacia oleracea; recombinant; Homodimer in K-buffer; associates into tetramers in the non-salt buffer; also called SoBADH; ALDH10; source: E. coli, purified to homogeneity
In the case of B1, the “stoichiometry N” value in data set [1] was determined as 2; in data set [2], 4.

B2: betaine aldehyde dehydrogenase from Pseudomonas aeruginosa (enzyme)
chain: MARFEEQKLYIGGRYVEASSGATFETINPANGEVLAKVQRASREDVERAVQSAVEGQKVWAAMTAMQRSRILRRAVDILRERNDELAALETLDTGKPLAETRSVDIVTGADVLEYYAGLVPAIEGEQIPLRETSFVYTRREPLGVVAGIGAWNYPVQIALWKSAPALAAGNAMIFKPSEVTPLTALKLAEIYTEAGVPDGVFNVLTGSGREVGQWLTEHPLIEKISFTGGTSTGKKVMASASSSSLKEVTMELGGKSPLIIFPDADLDRAADIAVMANFFSSGQVCTNGTRVFIHRSQQARFEAKVLERVQRIRLGDPQDENTNFGPLVSFPHMESVLGYIESGKAQKARLLCGGERVTDGAFGKGAYVAPTVFTDCRDDMTIVREEIFGPVMSILVYDDEDEAIRRANDTEYGLAAGVVTQDLARAHRAIHRLEAGICWINTWGESPAEMPVGGYKQSGVGRENGLTTLAHYTRIKSVQVELGDYASVF
notes: betaine aldehyde dehydrogenase (BADH, ALDH9) of Pseudomonas aeruginosa; recombinant; Homotetramer; also called PaBADH; ALDH9; source: E. coli, purified to homogeneity
With B2, in data set [3], the “stoichiometry N” value was found to be 4.

(Values after publication PMC3554688, “Potassium and Ionic Strength Effects on the Conformational and Thermal Stability of Two Aldehyde Dehydrogenases Reveal Structural and Functional Roles of K^+-Binding Sites” (PLoS ONE, 2013).)
